± gives the uncertainty stated by the source.
Assay: protein stability index of a GFP-peptide fusion (yeast GPS) (PSI 1-4); higher = more stable; sorted into four equal gates, so the index is relative within each strain
How it was run: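 Each library plasmid carries Cherry plus GFP with a tiled 17-residue yeast protein peptide fused downstream, and the pooled library was carried in yeast. Mid-log cultures in leucine-free medium were sorted into four equal gates by GFP/Cherry ratio. Reads from Illumina sequencing of PCR-amplified plasmids from each gate were assigned to strains by barcodes. Per peptide, the protein stability index was computed as the summed products of gate read frequency and gate number.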

Row | Sequence | protein stability index (doa10∆) | protein stability index (pdr5∆) | protein stability index (san1∆) | protein stability index (ubr1∆)
1 | KEVIELPVKHPELFESL [RPT6] | 2.98 ± 0.064 | 3.04 ± 0.036 | 3.05 ± 0.054 | 3.09 ± 0.055
2 | NTENNDPDIPMTIDLEP [IRR1] | 3.07 ± 0.17 | 2.94 ± 0.16 | 2.48 ± 0.19 | 3.14 ± 0.12
3 | SGTPTLKKNIEPKKDKE [YOR098C/NUP1] | 3.39 ± 0.19 | 3.29 ± 0.11 | 2.71 ± 0.25 | 3.05 ± 0.084
4 | QVLVCTATLAWGVNLPA [BRR2] | 1.53 ± 0.11 | 1.91 ± 0.088 | 2.1 ± 0.089 | 2.12 ± 0.059
5 | GHIAKLMATEYQDIEGG [RPB2] | 3.45 ± 0.29 |  |  | 3.18 ± 0.13
6 | DMLLHKYYIVSSSKSMI [SRB8] | 1.26 ± 0.074 | 1.47 ± 0.062 | 1.7 ± 0.14 | 1.61 ± 0.079
7 | EETDEVSSESSDEAIIP [SIR3] | 2.93 ± 0.068 | 2.52 ± 0.056 | 2.73 ± 0.065 | 2.82 ± 0.043
8 | PKDTSAATMTSAPPPAL [RGR1] | 2.49 ± 0.1 | 2.59 ± 0.1 | 2.51 ± 0.069 | 2.85 ± 0.097
9 | HLIFSNARIYNTEGSVV [SNF2] | 3 ± 0.12 | 3.39 ± 0.18 | 2.49 ± 0.19 | 3.18 ± 0.085
10 | NNRMGSYDCTGVNELAP [POP1] | 2.63 ± 0.099 | 2.42 ± 0.076 | 2.74 ± 0.085 | 2.79 ± 0.059
11 | HLKILASSNFPFLNETK [RPC82] | 2.52 ± 0.055 | 2.61 ± 0.064 | 2.51 ± 0.06 | 2.62 ± 0.045
12 | NSPTSFFDGSASSTPIP [YOR098C/NUP1] | 3.19 ± 0.07 | 2.8 ± 0.049 | 2.94 ± 0.052 | 2.84 ± 0.046
13 | GLRVRGQHTKTTGRRRA [RPS18A] | 2.09 ± 0.052 | 2.33 ± 0.066 | 2.21 ± 0.068 | 2.54 ± 0.037
14 | INELVLENFKSYAGKQV [SMC4] | 2.69 ± 0.075 | 2.75 ± 0.057 | 2.39 ± 0.079 | 2.74 ± 0.049
15 | FAWSKPSTGSNLQQQQQ [YGR119C/NUP57] | 3.02 ± 0.061 | 3.06 ± 0.063 | 3.02 ± 0.05 | 2.95 ± 0.045
16 | VDNVTLESYKTQAKKLY [SRP72] | 3.02 ± 0.11 | 2.87 ± 0.14 |  | 2.89 ± 0.11
17 | SLLAMHKHNIMKNENAN [CDC53] | 2.2 ± 0.064 | 2.58 ± 0.066 | 2.82 ± 0.072 | 3.05 ± 0.046
18 | NRRKQSFVLNKNTIDFE [RPN4] | 2.86 ± 0.062 | 1.74 ± 0.045 | 2.1 ± 0.075 | 1.88 ± 0.044
19 | NGDNLYGNDEEVLFYED [RPN4] | 3.07 ± 0.1 | 3.22 ± 0.12 | 3.1 ± 0.096 | 2.95 ± 0.074
20 | LRAHTDDSRNPDCKIKI [PRE2] | 2.86 ± 0.073 | 2.92 ± 0.12 | 2.86 ± 0.085 | 2.77 ± 0.11
21 | LQPIKGESARRFQKCFP [RPC40] |  | 3 ± 0.25 |  | 
22 | PFFARFKLRIQTTEGYD [RPB11] |  | 1.37 ± 0.12 | 1.37 ± 0.26 | 
23 | KGPIIISKNPSNGIFYG [SIR2] | 2.74 ± 0.067 | 2.5 ± 0.061 | 1.92 ± 0.083 | 2.3 ± 0.053
24 | RLASEPGIISITSLQDS [YMR129W/POM152] | 2.94 ± 0.1 | 2.34 ± 0.077 | 2.96 ± 0.083 | 1.82 ± 0.051
25 | SNQERCHDEGNDMLQRN [RRI1] | 3.33 ± 0.075 | 3.2 ± 0.11 | 3.35 ± 0.098 | 3.16 ± 0.076
26 | GQPVNDFIDTATRHVLM [RPS3] | 2.96 ± 0.081 | 3.02 ± 0.06 | 3.1 ± 0.051 | 2.96 ± 0.07
27 | NATVNLAMEAILNELEV [YJR042W/NUP85] | 2.7 ± 0.11 | 3 ± 0.11 | 2.58 ± 0.12 | 2.55 ± 0.11

Row | Sequence | protein stability index (doa10∆) | protein stability index (pdr5∆) | protein stability index (san1∆) | protein stability index (ubr1∆)
28 | LYPDSSSFKKNLLKFIT [RPN3] | 1.19 ± 0.075 | 1.26 ± 0.069 | 1.05 ± 0.13 | 1.25 ± 0.18
29 | GGALDNPFEDDMDGVDF [BRN1] | 3.39 ± 0.054 | 3.32 ± 0.077 | 3.4 ± 0.039 | 3.41 ± 0.057
30 | QVMEEKLDENNAQLSCI [PUP2] | 3.31 ± 0.086 | 2.69 ± 0.27 | 2.86 ± 0.19 | 3.17 ± 0.17
31 | TVALREIRRFQKSTELL [HHT1] | 2.99 ± 0.098 | 2.91 ± 0.087 | 3.07 ± 0.068 | 3.02 ± 0.078
32 | VPTSIQTKRWPTMYTRL [SIN4] | 2.18 ± 0.048 | 2.57 ± 0.05 | 2.5 ± 0.047 | 2.62 ± 0.039
33 | ERQQDELENFLDNFETK [YJL041W/NSP1] | 3.23 ± 0.16 | 3.29 ± 0.21 | 3.48 ± 0.13 | 3.38 ± 0.075
34 | NLPEHIVPGTYIQERNP [RPS10A] | 2.64 ± 0.069 | 2.62 ± 0.068 | 2.7 ± 0.047 | 2.68 ± 0.045
35 | REQSSNDSETHTEDEST [BRN1] |  | 3.43 ± 0.27 |  | 
36 | VIPSYSKWFNLEKIHSI [SWI3] | 1.69 ± 0.045 | 1.6 ± 0.049 | 1.44 ± 0.075 | 1.89 ± 0.038
37 | RCKIYFFYLRISKKLQF [PCI8] | 1.29 ± 0.06 | 1.31 ± 0.046 | 1.19 ± 0.093 | 1.35 ± 0.052
38 | VEMAWIMGFISYHNGNL [FAS2] | 2.67 ± 0.14 | 3.2 ± 0.1 | 3.29 ± 0.063 | 3.06 ± 0.12
39 | AFFHLFASLRVLPDADV [YJL039C/NUP192] | 1.17 ± 0.08 | 1.24 ± 0.078 | 1.36 ± 0.14 | 1.97 ± 0.066
40 | NKVHETSSKSSSLSAII [YDL088C/ASM4] | 2.67 ± 0.044 | 2.83 ± 0.053 | 2.81 ± 0.054 | 2.8 ± 0.035
41 | KENELLFGEKSILGKFC [YCS4] | 1.55 ± 0.04 | 1.72 ± 0.051 | 1.59 ± 0.11 | 1.73 ± 0.039
42 | KGQGPFTLTYDIIETFS [YMR129W/POM152] | 1.95 ± 0.045 | 2.31 ± 0.064 | 2.02 ± 0.057 | 2.48 ± 0.044
43 | PEYYSTARVMGGLKNGV [DIS3] | 3.15 ± 0.093 | 3.24 ± 0.1 | 3.23 ± 0.052 | 3.01 ± 0.082
44 | ADNVDKILEQFEYVLYP [FAS2] | 2.05 ± 0.067 | 1.94 ± 0.089 | 2.17 ± 0.094 | 2.57 ± 0.08
45 | EKQHENAVLELGTVQRE [SMC3] |  | 3.54 ± 0.26 |  | 
46 | ECPVGEFLINEGTPINN [RPN14] | 2.99 ± 0.1 | 2.39 ± 0.069 | 2.89 ± 0.11 | 2.31 ± 0.085
47 | QTGIFVYQNNITPSAMK [RPB5] | 3.06 ± 0.091 | 2.55 ± 0.16 | 3.11 ± 0.075 | 3.36 ± 0.12
48 | SSSSLECATCHGNLASC [RPO31] | 2.79 ± 0.046 | 3.04 ± 0.058 | 3.05 ± 0.049 | 2.95 ± 0.037
49 | INELFKKYTQNNPLLLI [RPN8] | 1.85 ± 0.071 | 1.48 ± 0.05 | 1.37 ± 0.14 | 1.11 ± 0.049
50 | IKNLGLPSDRCSKAMGD [RPP1] | 3.36 ± 0.19 | 3.32 ± 0.13 | 3.25 ± 0.23 | 
51 | VIFDASIKDTQNVGQGK [BRN1] | 2.15 ± 0.14 | 2.45 ± 0.12 | 2.61 ± 0.13 | 3.01 ± 0.096
52 | VEITFGKEFGDVSVKMG [RRP45] | 1.38 ± 0.073 | 1.68 ± 0.083 | 1.32 ± 0.19 | 1.79 ± 0.12
53 | IMQEAGLRAVRKNRYVI [RPT3] | 2.89 ± 0.076 | 2.97 ± 0.099 | 2.91 ± 0.083 | 3.29 ± 0.13
54 | QDSILIIYPRSQTTLVQ [ARP9] | 2.6 ± 0.16 | 1.81 ± 0.064 | 2.23 ± 0.079 | 2.46 ± 0.067

Source: the supplement of paper PMC9732359
